From patent US20240240209A1, “SYNTHESIS OF ENANTIOPURE CIS-A-IRONE FROM A RENEWABLE CARBON SOURCE” (Agency for Science, Technology and Research, priority 2021, published 2024)

B1: A14G (protein)
chain: MPQEARTPQQQVTGDEVGDWYDKFGEVYHLTLGESVHCGLWFPPDAPVPQDMELVTMSSQAQDRFTDYLIETLDPKAGQHLLDIGCGTGRPALKAARQRGIAVTGVAVSKEQIAAANRLAAGHGLTERLTFEVADAMRLPYEDESFDCAWAIESLDHMDRAKALGEAWRVLKPGGDLLVAEEVVTEELTEPETALFETLFALNVPPRLGEFFDIVSGAGFHTLSLKDLSADLAMTMNVFALGVYSRRAEFTERFGAEFVDGLLAGLGSAQETVIRKTRFFMATLRKPAV
modifications: Modified from pMT1
B2: M137H (protein)
chain: MPQEARTPQQQVTADEVGDWYDKFGEVYHLTLGESVHCGLWFPPDAPVPQDMELVTMSSQAQDRFTDYLIETLDPKAGQHLLDIGCGTGRPALKAARQRGIAVTGVAVSKEQIAAANRLAAGHGLTERLTFEVADAHRLPYEDESFDCAWAIESLDHMDRAKALGEAWRVLKPGGDLLVAEEVVTEELTEPETALFETLFALNVPPRLGEFFDIVSGAGFHTLSLKDLSADLAMTMNVFALGVYSRRAEFTERFGAEFVDGLLAGLGSAQETVIRKTRFFMATLRKPAV
modifications: Modified from pMT1
B3: S268Q (protein)
chain: MPQEARTPQQQVTADEVGDWYDKFGEVYHLTLGESVHCGLWFPPDAPVPQDMELVTMSSQAQDRFTDYLIETLDPKAGQHLLDIGCGTGRPALKAARQRGIAVTGVAVSKEQIAAANRLAAGHGLTERLTFEVADAMRLPYEDESFDCAWAIESLDHMDRAKALGEAWRVLKPGGDLLVAEEVVTEELTEPETALFETLFALNVPPRLGEFFDIVSGAGFHTLSLKDLSADLAMTMNVFALGVYSRRAEFTERFGAEFVDGLLAGLGQAQETVIRKTRFFMATLRKPAV
modifications: Modified from pMT1
B4: A14P (protein)
chain: MPQEARTPQQQVTPDEVGDWYDKFGEVYHLTLGESVHCGLWFPPDAPVPQDMELVTMSSQAQDRFTDYLIETLDPKAGQHLLDIGCGTGRPALKAARQRGIAVTGVAVSKEQIAAANRLAAGHGLTERLTFEVADAMRLPYEDESFDCAWAIESLDHMDRAKALGEAWRVLKPGGDLLVAEEVVTEELTEPETALFETLFALNVPPRLGEFFDIVSGAGFHTLSLKDLSADLAMTMNVFALGVYSRRAEFTERFGAEFVDGLLAGLGSAQETVIRKTRFFMATLRKPAV
modifications: Modified from pMT1
B5: M137N (protein)
chain: MPQEARTPQQQVTADEVGDWYDKFGEVYHLTLGESVHCGLWFPPDAPVPQDMELVTMSSQAQDRFTDYLIETLDPKAGQHLLDIGCGTGRPALKAARQRGIAVTGVAVSKEQIAAANRLAAGHGLTERLTFEVADANRLPYEDESFDCAWAIESLDHMDRAKALGEAWRVLKPGGDLLVAEEVVTEELTEPETALFETLFALNVPPRLGEFFDIVSGAGFHTLSLKDLSADLAMTMNVFALGVYSRRAEFTERFGAEFVDGLLAGLGSAQETVIRKTRFFMATLRKPAV
modifications: Modified from pMT1
B6: A14L (protein)
chain: MPQEARTPQQQVTLDEVGDWYDKFGEVYHLTLGESVHCGLWFPPDAPVPQDMELVTMSSQAQDRFTDYLIETLDPKAGQHLLDIGCGTGRPALKAARQRGIAVTGVAVSKEQIAAANRLAAGHGLTERLTFEVADAMRLPYEDESFDCAWAIESLDHMDRAKALGEAWRVLKPGGDLLVAEEVVTEELTEPETALFETLFALNVPPRLGEFFDIVSGAGFHTLSLKDLSADLAMTMNVFALGVYSRRAEFTERFGAEFVDGLLAGLGSAQETVIRKTRFFMATLRKPAV
modifications: Modified from pMT1
B7: M137S (protein)
chain: MPQEARTPQQQVTADEVGDWYDKFGEVYHLTLGESVHCGLWFPPDAPVPQDMELVTMSSQAQDRFTDYLIETLDPKAGQHLLDIGCGTGRPALKAARQRGIAVTGVAVSKEQIAAANRLAAGHGLTERLTFEVADASRLPYEDESFDCAWAIESLDHMDRAKALGEAWRVLKPGGDLLVAEEVVTEELTEPETALFETLFALNVPPRLGEFFDIVSGAGFHTLSLKDLSADLAMTMNVFALGVYSRRAEFTERFGAEFVDGLLAGLGSAQETVIRKTRFFMATLRKPAV
modifications: Modified from pMT1
B8: S268R (protein)
chain: MPQEARTPQQQVTADEVGDWYDKFGEVYHLTLGESVHCGLWFPPDAPVPQDMELVTMSSQAQDRFTDYLIETLDPKAGQHLLDIGCGTGRPALKAARQRGIAVTGVAVSKEQIAAANRLAAGHGLTERLTFEVADAMRLPYEDESFDCAWAIESLDHMDRAKALGEAWRVLKPGGDLLVAEEVVTEELTEPETALFETLFALNVPPRLGEFFDIVSGAGFHTLSLKDLSADLAMTMNVFALGVYSRRAEFTERFGAEFVDGLLAGLGRAQETVIRKTRFFMATLRKPAV
modifications: Modified from pMT1
B9: A14T (protein)
chain: MPQEARTPQQQVTTDEVGDWYDKFGEVYHLTLGESVHCGLWFPPDAPVPQDMELVTMSSQAQDRFTDYLIETLDPKAGQHLLDIGCGTGRPALKAARQRGIAVTGVAVSKEQIAAANRLAAGHGLTERLTFEVADAMRLPYEDESFDCAWAIESLDHMDRAKALGEAWRVLKPGGDLLVAEEVVTEELTEPETALFETLFALNVPPRLGEFFDIVSGAGFHTLSLKDLSADLAMTMNVFALGVYSRRAEFTERFGAEFVDGLLAGLGSAQETVIRKTRFFMATLRKPAV
modifications: Modified from pMT1
B10: S268L (protein)
chain: MPQEARTPQQQVTADEVGDWYDKFGEVYHLTLGESVHCGLWFPPDAPVPQDMELVTMSSQAQDRFTDYLIETLDPKAGQHLLDIGCGTGRPALKAARQRGIAVTGVAVSKEQIAAANRLAAGHGLTERLTFEVADAMRLPYEDESFDCAWAIESLDHMDRAKALGEAWRVLKPGGDLLVAEEVVTEELTEPETALFETLFALNVPPRLGEFFDIVSGAGFHTLSLKDLSADLAMTMNVFALGVYSRRAEFTERFGAEFVDGLLAGLGLAQETVIRKTRFFMATLRKPAV
modifications: Modified from pMT1
B11: K94R (protein)
chain: MPQEARTPQQQVTADEVGDWYDKFGEVYHLTLGESVHCGLWFPPDAPVPQDMELVTMSSQAQDRFTDYLIETLDPKAGQHLLDIGCGTGRPALRAARQRGIAVTGVAVSKEQIAAANRLAAGHGLTERLTFEVADAMRLPYEDESFDCAWAIESLDHMDRAKALGEAWRVLKPGGDLLVAEEVVTEELTEPETALFETLFALNVPPRLGEFFDIVSGAGFHTLSLKDLSADLAMTMNVFALGVYSRRAEFTERFGAEFVDGLLAGLGSAQETVIRKTRFFMATLRKPAV
modifications: Modified from pMT1
B12: A269L (protein)
chain: MPQEARTPQQQVTADEVGDWYDKFGEVYHLTLGESVHCGLWFPPDAPVPQDMELVTMSSQAQDRFTDYLIETLDPKAGQHLLDIGCGTGRPALKAARQRGIAVTGVAVSKEQIAAANRLAAGHGLTERLTFEVADAMRLPYEDESFDCAWAIESLDHMDRAKALGEAWRVLKPGGDLLVAEEVVTEELTEPETALFETLFALNVPPRLGEFFDIVSGAGFHTLSLKDLSADLAMTMNVFALGVYSRRAEFTERFGAEFVDGLLAGLGSLQETVIRKTRFFMATLRKPAV
modifications: Modified from pMT1

Assay: In-vivo cis-α-irone production screening of pMT7 and pMT12 mutants
Format: cell-based, Escherichia coli
Conditions: mutations made to pMT12; normalized to pMT12 (=1)
Source text: Q60 was identified as another possible mutation site.
FIGS. 24a and 24b show the in-vivo and in-vitro cis-α-irone production of other possible single mutations to pMT12. The in-vitro results in FIG. 24b validate the mutations and in-vivo results in FIG. 24a. The mutations in FIG. 24 include Q11H (SEQ ID No. 23), V12R (SEQ ID No. 24), A95C (SEQ ID No. 25), H123Q (SEQ ID No. 26), E127T (SEQ ID No. 27), M137T (SEQ ID No. 28), D176V (SEQ ID No. 29), D176Y (SEQ ID No. 30). P191S (SEQ ID No. 31), P191V (SEQ ID No. 32), F212L (SEQ ID No. 33), S268H (SEQ ID No. 34), AND T272A (SEQ ID No. 35). The screening results in FIGS. 24 and 25 are semi-quantitative to identify beneficial mutants that give greater than one-fold change of irone production as compared to pMT12.
FIGS. 25a to 25c (and Table 4) show the in-vivo testing results of other possible mutations that may be made to pMT12 to improve its in-vivo production of cis-α-irone. FIGS. 25a to 25c each include two dotted lines to account for a 10% error bar to show the normalized fold change of 0.9 and 1.1.
The four plasmids were transformed into E. coli BL21 (DE3), ΔaroA, ΔaroB, ΔaroC, ΔserC or E. coli BL21 (DE3), ΔaroA, ΔaroB, ΔaroC, ΔserC, ΔmetJ strains and plated on Agar plate containing LB media (10 g, tryptone. 5 g, yeast extract. 10 g, NaCl) supplemented with appropriate antibiotics (100 mg/L ampicillin, 34 mg/L chloramphenicol, 50 mg/L kanamycin, and 100 mg/L spectinomycin). One colony was picked and inoculate into LB media with antibiotics. 1% of overnight culture was inoculated into 1 ml fresh auto-inducing chemically defined media. The chemical media contains carbon source solution: 0.5 g/L glucose, 10 g/L glycerol; inducer: 30 mM lactose and base media: 2 g/L ammonium sulfate, 4.2 g/L KH2PO4, 11.24 g/L K2HPO4, 1.7 g/L citric acid, 0.5 g/L MgSO4, and 10 mL/L trace element solution. The trace element solution (100×) contained 0.25 g/L CoCl2·6H2O, 1.5 g/L MnSO4·4H2O, 0.15 g/L CuSO4·2H2O, 0.3 g/L H3BO3, 0.25 g/L Na2MoO4·2H2O, 0.8 g/L Zn(CH3COO)2, 5 g/L Fe(III) citrate, and 0.84 g/L ethylenediaminetetra-acetic acid (EDTA) at pH 8.0. The culture was grown at 28° C. for 3 days and the products were extracted with 1 ml hexane for GCMS analysis. An example of a fed-batch process for α-ionone Is briefly described, overnight culture was inoculated into 2 L chemical media comprising the base media and 5 g/L glucose, at 37° C. and 30% DO. pH was controlled at 7 with base solution (14% ammonia and 0.5 M NaOH). Feed media (500 g/L glucose and 5 g/L MgSO4) was added into bioreactor once OD600 reached 5, at a rate of 7.15-25.75 g/h glucose for about 4-5 h until OD600 reached ˜30-40. Subsequently, 0.1 mM IPTG was added to induce the production, and feeding rate was kept at a constant rate of 10 g/h glucose, and the temperature was reduced to 30° C. DO was adjusted to 2% or 10%. Feeding was stopped at 113 h when 2 L feeding media was finished, but the culture was further incubated for 24 h. To capture the evaporated products, the exhaust was connected to 25 ml sunflower oil.

| Molecule | Fold change in in-vivo cis-α-irone production |
| --- | --- |
| B1 | 0.92 |
| B2 | 1.11 |
| B3 | 1.32 |
| B4 | 0.92 |
| B5 | 1.11 |
| B6 | 0.92 |
| B7 | 1.11 |
| B8 | 1.23 |
| B9 | 0.90 |
| B10 | 1.18 |
| B11 | 0.97 |
| B12 | 1.29 |
